The values below are quoted from earlier work in PMC4581962.

This series addresses IL-6Rα (Homo sapiens) (UniProt P08887).
UniProt P08887, sequence (P08887 20-355): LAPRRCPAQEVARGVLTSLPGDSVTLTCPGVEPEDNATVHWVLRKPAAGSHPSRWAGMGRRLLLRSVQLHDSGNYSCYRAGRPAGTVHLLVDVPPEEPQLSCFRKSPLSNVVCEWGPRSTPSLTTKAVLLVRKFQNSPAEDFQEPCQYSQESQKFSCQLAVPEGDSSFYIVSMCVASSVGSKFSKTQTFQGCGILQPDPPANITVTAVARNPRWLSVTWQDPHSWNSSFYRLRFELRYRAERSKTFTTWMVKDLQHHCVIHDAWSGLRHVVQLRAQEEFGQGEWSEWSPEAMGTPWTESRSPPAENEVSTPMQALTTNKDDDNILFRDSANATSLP

A word on the Kd: it is the equilibrium constant for the complex coming apart. Consider IL-6 (from UniProt P05231), for which the Kd was 9 nM.
